Test results from article PMC7022315.

Target: Stx2k B-subunit (of the Stx2kE167Q toxoid) (Escherichia coli)
Experiment: crystal structure

Substance: Stx2k B-subunit (of the Stx2kE167Q toxoid) (natural protein)
- stoichiometry N: 5
